Measurements taken from the DeepSol protein solubility set.

Test: soluble on expression in E. coli; label from the status in PepcDB or PDB records

| Sequence | soluble on expression in E. coli |
| --- | --- |
| MAHHHHHHMRCGGRWIVERSDGFVIEVEKPGVSVVFGRDIGLPSAQRMDGKYVSRQQFSVEWKASSLHVRQLGKNPTFYSMEFHTLPGDGTAEKELVCCREEETREGKQMGDGGKGLNVILVPPVSNENFLASLRGGAKGIEPATLHFPGELNLPRFTVRYVVADEKSSEEKISREMLTVPLGSSKSDEVEEDERANQPWMTGSWRGILDSVLHEQQQQQQQAER | not soluble |
| MKIALIGASGYVGSALLKEALSRGHHVTALVSRPERIAAQANLAAAKVDVQDSAQLAEQLKGFDAVLSAFSGHAQAEQFDYFVKGIRSIIAAAKAAQAPRLLVVGGAGSLEVAPGVQLVDTPEFPEQWKASALGAREALNLLRAETELNWTLLSPSAMLQPGQRTGQFRLGKDQLLVDAEGNSHISVEDYAVAMIDELEKGEHQRSRFTVGYLEHHHHHH | soluble |
| MLHILINFINFGKMFTLGNIMKFKKIYIELSDICGLKCDFCPSQKGIRGVMSEEKFQNLAYEISNKAELFTFHLLGDPLLLPNLENYLKIAKDEAMKLEITTSGFYLNSKNQALLLGYENIHQINISLMSFLSQSKISLEQYFKPILELCKKHLEQKSLSFINLRLWNLDANFKAPKSNLKIYEFLAKEFEAKIDANLSKNRLQRHILLHQNKLFKWPNLKDEPLYKKGKCHALKEQIGILSDGSLVPCCLDTKADINLGNVFENNFDKLFRSPRIKMMKKAFEEDKRIEKLCQTCEFFKARLGD | not soluble |
| MGSDKIHHHHHHMLNQQWLTTFIKLVEVGHFTHTAEQLFMTQPGVSQHIKKLEQQVGVDLLIRIGKSFELTEAGIVLYQQALVWQQQQQQVLSQLAVDDEHVGDCRLACSGSMALLLYPHLIDYQLPYSQLQIYLEAAPNKRIIDSVMTNTIDVGIITQPINMDELVVTPLAAQSLCLVLPQSYLHQSVTFEQLMELGMVSHPDAMHYWSQIVGQYFTKKQALALQVPIRSYVNQLNQILVPVAKGLAFAVLPQFAVDHFGQQQHIRVASFTTEQANNVVVSEPLFIIYKKHRPLARRYGPIIDKIKQLVK | not soluble |
| MAHHHHHHMAVSINSQLKYVVNQAASVEADMNCVERVQHYTSNIEHEDLMEEIDEAIRALEKNDKKRRERKGDPITPAGITHDDDDTSTATVSVPLLEESHASDASPELSYSPADNNNHNDDNGRRENVAAGSLEFRDVTMRYRAGLPHVLCGLTFTIPAGQKVGVIGRTGSGKSSLLLTLLRVVDIEDGQIVLSGRPIRSYSLRALRQLFSMIPQDPLLFNGKVRENLDPLNVCSDAQVREAIRLVGMEDRLAAETDPLQCPVEEGGANFSVGQRQLLCMARTLLRRGCSFILMDEATANVDPTLDKQIQHVVTHVFAGHTVITIAHRLHTLATYDVILMMEEGRVVEMGSPYDLVRSADTRFAQMVRSLGESAMQEFMASTQAPTR | not soluble |
| MGSDKIHHHHHHMQFEPALQQGRLVKRYKRFLADIKLADGSEMTIHCPNTGSMRNCLFPGEAVWFSTSANPKRKYAYTWELMGTPNGGFIGIHSGSANALAEEAIHSGIIKELTGYDTLSREVKYGDENSRIDILLQGAQKPDCYIEVKSCTLLEDGQGFFPDAVSLRGQKHLRELMHMANLGHRAVLLFVVQHSEIFSVAPAAHIDHEYANLLKKATLSGVEVLAYRCEMSPTEIRLAQACPVRV | not soluble |
| MAAVSEFRLLQLPERAQRISLSHMSYNSIFSLSLCSTKKNKRPQGVPIRTLTYEGIEITSDRINRKHPVSDTFLSKAGFLDFYNCTYKSSQFIHKFLIHNTTTVFTRGVPRYNLNDLLVSNGQKIYVQVGRGIIFLEKDVNKFLKHWIRGSNRELKSLAFRAPMNMEIEHAIETILKGICYKDAREEDAASIKLVHICNGNTFKHPIIKISGFRIKRFDGTNATVVIRLLNANSVCFTSYVLHFLHNTSIMAAVSPFRLLQLPQRAQRISLSHMSSVSVFSLSLCATKNTKDLVRSLNLKCIRLCLEFFDDLILSICFEGCIIDFYLYMLNSSQKITPGLCAPKNVQVSTNDVKNFKWERPNLKFRNWIDHFLYILNISTLDVAMGKGVRVKKLSYHILDMTSNETNRTNSVNDTFLSKAEFIVLSNCTYETSQSIHKFLICNNATLFSNVFSPYNLNDLLISNCQNLLVNVDRGNIFLGQDVNKFLKHWIRGSNVTLKCLALEAPMNMERELVIETILEGIDYKVKEEEVSVYKKMLDIFNHGNPSITKIRGFRITRFDGTNCDVVIRTCNPSVMRYSLNMFIF | not soluble |
| MSGAIYRCMAIASEPLDALIIGAGHNGLVCAAYLARAGKRVLVLEAREVVGGAAVTEEFHPGFRNSVAAYTVSLLQPRVIADLALERHGLRVVPRRINNFLPLPNGDYLLAGAGRTAQDVARFSARDAAALPAYEARLEQLADVLRALALQPPPDVTDGGWLQALPQLWRAGKLGLQLQGLPLTLRQELLDLFTISAAEYLDRWFESAPIKALFGFDGIVGNYASPHTPGTAYVLLHHVFGQSNGVKGAWGHAIGGMGAITQAMAASAREYGAQLRTGCAVERVLVEQGHAVGVVTTAGETVRARAVVANVNPKLLYQRLMRPDDVPATTRERIAHYRCGSGTFRMNVALSRLPDFAALPGNGDHLTAGIILAPSLDYMDRAWHDARAFGWSREPVVELLIPSTLDDTLAPPGQHVASLFCQHVAPQLPDGRRWDDHREEVADLMIATVERYAPGFAASVLGRQVLSPLDLERMFGLVGGDIFHGALSLNQLFSARPLLGQGAYRGAVPGLYLCGSGTHPGGGVTGAPGHNAARVILGGLEHHHHHH | not soluble |
| GAMQGEVSKAASADSTTEGTPADGFTVLSTKSLFLGQKLQVVQADIASIDSDAVVHPTNTDFYIGGEVGNTLEKKGGKEFVEAVLELRKKNGPLEVAGAAVSAGHGLPAKFVIHCNSPVWGADKCEELLEKTVKNCLALADDKKLKSIAFPSIGSGRNGFPKQTAAQLILKAISSYFVSTMSSSIKTVYFVLFDSESIGIYVQEMAKLDAN | soluble |
| MDLVDKRDVLIGDFRPSLGFYGGVRVGVYLDTTEPKHAKIKGFAMETLKRSSKVWLQELRSNLNIFWGTIESEISKNGAASYIFPLQRCIFSFLCASLAGVDASVSPDIAENGWKTINTWLALQVIPTAKLGVVPQPLEEILLHTWPYPSLLIAGNYKKLYNFIDENAGDCLRLGQEEFGLTRDEAIQNLLFVLGFNAYGGFSVFLPSLIGRITGDNSGLQERIRTEVRRVCGSGSDLNFKTVNEMELVKSVVYETLRFSPPVPLQFARARKDFQISSHDAVFEVKKGELLCGYQPLVMRDANVFDEPEEFKPDRYVGETGSELLNYLYWSNGPQTGTPSASNKQCAAKDIVTLTASLLVADLFLRYDTITGDSGSIKAVVKAK | soluble |
| MANYPKELPAQTQSRQPGIESEMNPSPVYEYEDYKGADKLKGKVALITGGDSGIGRAVSVAYAKEGADIAIVYKDEHEDAEETKKRVEQEGVKCLLIAGDVGEEEFCNEAVEKTVKELGGLDILVNNAGEQHPKESIKDITSEQLHRTFKTNFYSQFYLTKKAIDYLKPGSAIINTTSINPYVGNPTLIDYTATKGAINAFTRTMAQALVKDGIRVNAVAPGPIWTPLIPATFPEETVAQFGQDTPMGRPGQPVEHVGCYVLLASDESSYMTGQTLHVNGGNFVT | soluble |
| MAELPAKRRFTRIDRLPPYVFNITSELKMAARRRGEDIIDFSMGNPDGPTPPHIVEKMCSVAQREDTHGYSTSRGIPCLRRAISRWYADRYQVDIDPENEAIVTIGSKEGLAHLMLATLDHGDTVLVPNPSYPIHIYGAVIAGAQVRSVPLTEGIDFFGELERAIRETIPKPKMMILGFPSNPTAQCVELDFFERVVALAKQYDVLVVHDLAYADIVYDGWKAPSIMQVPGAKDIAVEFFTLSKSYNMAGWRIGFMVGNPELVSALARIKSYHDYGTFTPLQVAAIAALEGDQQCVRDIAEQYRQRRNALVRGLHEAGWMVDNPKASMYVWAKIPEPYAHLGSLEFAKRLLAEAKVCVSPGIGFGDYGDTHVRFALIENQDRIRQAVRGIKSMFRADGLLKPGKSSPNEMA | not soluble |
